Laboratory results reported in IntAct's records for PubMed 38123684.

B1: cAMP-regulated phosphoprotein 19 (Homo sapiens), P56211 (parent)
chain: MSAEVPEAASAEEQKEMEDKVTSPEKAEEAKLKARYPHLGQKPGGSDFLRKRLQKGQKYFDSGDYNMAKAKMKNKQLPTAAPDKTEVTGDHIPTPQDLPQRKPSLVASKLAG
partner: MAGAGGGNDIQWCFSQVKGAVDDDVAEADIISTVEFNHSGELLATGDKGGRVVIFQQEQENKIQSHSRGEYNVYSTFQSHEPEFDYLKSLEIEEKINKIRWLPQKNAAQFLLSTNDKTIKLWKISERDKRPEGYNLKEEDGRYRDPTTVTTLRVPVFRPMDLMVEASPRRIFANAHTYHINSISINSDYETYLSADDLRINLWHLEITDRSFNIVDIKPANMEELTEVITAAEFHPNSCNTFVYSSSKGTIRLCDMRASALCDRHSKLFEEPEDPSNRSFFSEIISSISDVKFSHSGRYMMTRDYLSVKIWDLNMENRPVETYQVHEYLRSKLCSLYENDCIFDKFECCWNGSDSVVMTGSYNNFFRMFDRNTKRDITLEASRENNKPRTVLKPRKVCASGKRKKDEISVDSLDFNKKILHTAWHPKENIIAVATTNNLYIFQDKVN

Variants of: B1
Conditions: with 2aba_human PPP2R2A

Row | Variant | effect of a mutation on the interaction
1 | MSAEVPEAASAEEQKEMEDKVTSPEKAEEAKLKARYPHLGQKPGGSDFLRKRLQKGQKYFDEGDYNMAKAKMKNKQLPTAAPDKTEVTGDHIPTPQDLPQRKPSLVASKLAG [S62E] | with no effect
